Source: patent US20180030127A1 (APRILBIO, published 2018)

Experiments:
[1] = target: T1, bovine serum albumin (bovine, UniProt P02769 25-607); assay: monoclonal phage ELISA at pH 6, antigen coated at 5 ug/ml, anti-human kappa-HRPO, A450
T1 construct: also called BSA; bovine SA
Experimental: For the monoclonal phage ELISA, the recombinant phage was obtained from positive E. coli clones by phage rescue, and ˜10⁸ CFU/well were added to MaxiSorb ELISA plates (Nunc, Roskilde, Denmark) that were coated with 5 μg/ml HSA, RSA, MSA or BSA. The phage was allowed to bind to the antigens either at pH 6 or at pH 7.4 for 1 h at 37° C. A goat anti-human kappa L Ab-conjugated with HRPO (Sigma-Aldrich) was used as a secondary antibody. The binding signals were visualized with a TMB substrate (BD Science, San Jose, Calif., USA), and the absorbance at 450 nm was measured using an ELISA reader (Bio-Rad, Hercules, Calif., USA). The data represent the average of three experiments standard deviation. For the conventional ELISA, the various antigens [human SA, rat SA, mouse SA, monkey SA (Alpha diagnositic Intl., San Antonio, Tex., USA), canine SA (CUSABIO, Wuhan, Hubei, China). rabbit SA (Sigma-Aldrich), epidermal growth factor receptor (EGFR) (R&D systems, Minneapolis, Minn., USA), epithelial cell adhesion molecule (EpCAM) (R&D systems), IL-15 receptor a (IL-15Ra) (R&D systems), IL-10 (eBioscience, San Diego, Calif., USA), CD16a (R&D systems), c-MET (Sinobiological, Beijing, China)] at 5 μg/ml concentrations were immobilized on the microtiter plates, and the Fab molecules were allowed to bind to the antigens, and detected as above. To determine the concentration of soluble Fab or Fab-hGH fusion proteins, a sandwich ELISA was performed using a mouse anti-human IgG Fd mAb (AprilBio) as a capturing Ab and the goat anti-human kappa L chain pAb-HRPO conjugated (Sigma-Aldrich) as a detecting antibody. The human Fab fragment (Bethyl, Montgomery, Tex., USA) with a known concentration was used to draw the standard curve. For detecting the hGH domain, T-20, a goat pAb specific for the C-terminus of the hGH (Santacruz Biotechnology, Dallas, Tex., USA) and NYThGH, a mouse mAb specific for full-length hGH (Prospec, East Brunswick, N.J., USA) were used followed by a rabbit anti-goat IgG pAb-HRPO conjugated (Sigma-Aldrich) or a goat anti-mouse IgG pAb-HRPO conjugated (Sigma-Aldrich), respectively as a secondary antibody. A goat anti-human GCSF pAb (R&D Systems) was used to detecting the G-CSF domain, and a rabbit anti-human IFN-β pAb (PEPROTECH, Rocky Hill, USA) was used to detect the IFN-β domain.

[2] = target: T2, rat serum albumin (rat, UniProt P02770 25-608); assay: ELISA, purified soluble Fab on coated RSA, pH 7.4; rat SA, pH 7.4
T2 construct: Bought protein; also called RSA; rat SA
Experimental: (§1) For the monoclonal phage ELISA, the recombinant phage was obtained from positive E. coli clones by phage rescue, and ˜10⁸ CFU/well were added to MaxiSorb ELISA plates (Nunc, Roskilde, Denmark) that were coated with 5 μg/ml HSA, RSA, MSA or BSA. The phage was allowed to bind to the antigens either at pH 6 or at pH 7.4 for 1 h at 37° C. A goat anti-human kappa L Ab-conjugated with HRPO (Sigma-Aldrich) was used as a secondary antibody. The binding signals were visualized with a TMB substrate (BD Science, San Jose, Calif., USA), and the absorbance at 450 nm was measured using an ELISA reader (Bio-Rad, Hercules, Calif., USA). The data represent the average of three experiments standard deviation. For the conventional ELISA, the various antigens [human SA, rat SA, mouse SA, monkey SA (Alpha diagnositic Intl., San Antonio, Tex., USA), canine SA (CUSABIO, Wuhan, Hubei, China). rabbit SA (Sigma-Aldrich), epidermal growth factor receptor (EGFR) (R&D systems, Minneapolis, Minn., USA), epithelial cell adhesion molecule (EpCAM) (R&D systems), IL-15 receptor a (IL-15Ra) (R&D systems), IL-10 (eBioscience, San Diego, Calif., USA), CD16a (R&D systems), c-MET (Sinobiological, Beijing, China)] at 5 μg/ml concentrations were immobilized on the microtiter plates, and the Fab molecules were allowed to bind to the antigens, and detected as above. […]

[3] = target: T3, human serum albumin (human, UniProt P02768 25-609); assay: ELISA, purified soluble Fab, pH 7.4
T3 construct: Bought protein; also called HSA; human SA
Experimental: as §1

[4] = target: T2, rat serum albumin; assay: biolayer interferometry (Octet RED), SL335 on AR2G biosensor, RSA in solution, pH 6.0
Experimental: (§2) Real-time binding assays between the purified SL335 and the antigens (human SA, rat SA or mouse SA) were performed using biolayer interferometry with an Octet RED system (ForteBio, Menlo park, Calif., USA) as previously described except that AR2G (Amine Reactive Second-Generation) sensors were used (Costin et al., (2013) J Virol. 87, 52-66). Briefly, the predetermined concentration of SL335 was coupled to kinetics grade AR2G biosensors, and unbound Fab fragments were removed from the surfaces of the sensors by incubating in the kinetics buffer […]. […] The binding and dissociation kinetics were calculated using the Octet QK software package, which fit the observed binding curves to a 1:1 binding model to calculate the association rate constants. The association and dissociation rate constants were calculated using at least three different concentrations of human SA, rat SA or mouse SA. The equilibrium dissociation constants were calculated as the kinetic dissociation rate constant divided by the kinetic association rate constant.
(§3) Since SL335 was the best binder among four anti-human SA Fab clones, its cross-reactivity was further analyzed by ELISA. […] The binding affinities of SL335 to human SA, rat SA and mouse SA at pH 6 or pH 7.4 were further measured via biolayer interferometry by passing through different concentration of the antigens on biosensors that were coated with SL335 (see Table 6 below).

[5] = target: T4, mouse serum albumin (mouse, UniProt P07724 25-608); assay: biolayer interferometry (Octet RED), SL335 on AR2G biosensor, MSA in solution, pH 7.4; the filing calls the data unreliable; pH 7.4; left out of Table 6 for lack of reliability
T4 construct: Bought protein; also called MSA; mouse SA
Experimental: as §2
Since SL335 was the best binder among four anti-human SA Fab clones, its cross-reactivity was further analyzed by ELISA. […]

[6] = target: T5, cynomolgus monkey serum albumin (cynomolgus monkey, UniProt A2V9Z4 25-608); assay: ELISA, soluble Fab, antigen coated at 5 µg/ml
T5 construct: also called cynomolgus monkey SA; monkey SA

[7] = target: T6, IL-1b (UniProt P01584 117-269, limits assumed); assay: ELISA, soluble Fab, antigen coated at 5 µg/ml
T6 construct: The identity is uncertain because the two printings differ

[8] = target: c-MET (UniProt P08581 25-932, limits assumed); assay: ELISA, soluble Fab, antigen coated at 5 µg/ml
[9] = target: T7, rabbit serum albumin (rabbit, UniProt P49065 25-608); assay: ELISA, soluble Fab, antigen coated at 5 µg/ml
T7 construct: also called rabbit SA

[10] = target: T3, human serum albumin; assay: ELISA, purified soluble Fab on coated HSA, pH 7.4; human SA, pH 7.4
Experimental: as §1

[11] = target: T2, rat serum albumin; assay: biolayer interferometry (Octet RED), SL335 on AR2G biosensor, RSA in solution, pH 7.4
Experimental: as §2, §3

T2 sequence (P02770 25-608 limits assumed): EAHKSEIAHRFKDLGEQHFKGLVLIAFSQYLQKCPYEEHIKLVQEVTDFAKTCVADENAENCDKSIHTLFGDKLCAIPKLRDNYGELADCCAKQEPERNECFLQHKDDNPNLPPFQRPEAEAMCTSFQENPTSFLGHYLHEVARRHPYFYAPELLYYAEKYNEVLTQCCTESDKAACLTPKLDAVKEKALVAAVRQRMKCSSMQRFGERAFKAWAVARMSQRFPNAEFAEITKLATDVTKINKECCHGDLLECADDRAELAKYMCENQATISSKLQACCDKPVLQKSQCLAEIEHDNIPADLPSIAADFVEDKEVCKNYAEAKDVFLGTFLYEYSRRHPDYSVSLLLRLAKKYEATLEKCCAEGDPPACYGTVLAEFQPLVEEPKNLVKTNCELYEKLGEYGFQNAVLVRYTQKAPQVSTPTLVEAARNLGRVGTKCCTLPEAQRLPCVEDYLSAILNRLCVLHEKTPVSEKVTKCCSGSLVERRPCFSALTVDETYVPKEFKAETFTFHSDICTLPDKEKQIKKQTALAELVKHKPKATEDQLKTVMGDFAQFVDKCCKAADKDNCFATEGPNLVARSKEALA
T7 sequence (P49065 25-608 limits assumed): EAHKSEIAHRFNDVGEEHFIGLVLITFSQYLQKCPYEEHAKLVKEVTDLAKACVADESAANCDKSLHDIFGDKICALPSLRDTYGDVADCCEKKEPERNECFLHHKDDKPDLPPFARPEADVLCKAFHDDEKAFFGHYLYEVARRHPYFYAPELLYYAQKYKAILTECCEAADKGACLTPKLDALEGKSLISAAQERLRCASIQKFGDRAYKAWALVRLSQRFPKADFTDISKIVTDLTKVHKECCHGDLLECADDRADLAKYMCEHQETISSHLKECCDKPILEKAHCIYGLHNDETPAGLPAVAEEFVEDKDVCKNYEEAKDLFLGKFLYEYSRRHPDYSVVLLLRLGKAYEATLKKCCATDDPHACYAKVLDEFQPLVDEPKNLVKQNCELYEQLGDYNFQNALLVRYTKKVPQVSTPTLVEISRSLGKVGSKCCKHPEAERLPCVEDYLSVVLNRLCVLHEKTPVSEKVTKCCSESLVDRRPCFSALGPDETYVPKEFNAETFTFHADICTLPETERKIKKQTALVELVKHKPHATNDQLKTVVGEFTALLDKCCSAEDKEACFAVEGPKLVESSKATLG
T4 sequence (P07724 25-608 limits assumed): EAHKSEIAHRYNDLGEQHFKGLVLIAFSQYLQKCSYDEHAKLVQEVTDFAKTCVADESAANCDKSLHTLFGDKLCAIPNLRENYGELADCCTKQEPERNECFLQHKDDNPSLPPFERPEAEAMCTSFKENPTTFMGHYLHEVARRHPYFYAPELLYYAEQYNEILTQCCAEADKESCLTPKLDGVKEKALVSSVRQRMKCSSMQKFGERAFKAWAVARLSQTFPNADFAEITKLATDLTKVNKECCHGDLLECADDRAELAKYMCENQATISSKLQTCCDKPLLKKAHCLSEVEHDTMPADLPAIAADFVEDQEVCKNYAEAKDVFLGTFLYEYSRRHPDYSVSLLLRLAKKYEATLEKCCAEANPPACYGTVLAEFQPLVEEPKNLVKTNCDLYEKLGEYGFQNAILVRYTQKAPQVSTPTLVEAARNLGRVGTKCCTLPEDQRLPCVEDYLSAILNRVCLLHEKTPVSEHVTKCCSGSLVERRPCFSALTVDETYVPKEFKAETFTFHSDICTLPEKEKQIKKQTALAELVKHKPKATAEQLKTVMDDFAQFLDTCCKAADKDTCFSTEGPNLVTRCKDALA
Chain of c-MET (P08581 25-932 limits assumed): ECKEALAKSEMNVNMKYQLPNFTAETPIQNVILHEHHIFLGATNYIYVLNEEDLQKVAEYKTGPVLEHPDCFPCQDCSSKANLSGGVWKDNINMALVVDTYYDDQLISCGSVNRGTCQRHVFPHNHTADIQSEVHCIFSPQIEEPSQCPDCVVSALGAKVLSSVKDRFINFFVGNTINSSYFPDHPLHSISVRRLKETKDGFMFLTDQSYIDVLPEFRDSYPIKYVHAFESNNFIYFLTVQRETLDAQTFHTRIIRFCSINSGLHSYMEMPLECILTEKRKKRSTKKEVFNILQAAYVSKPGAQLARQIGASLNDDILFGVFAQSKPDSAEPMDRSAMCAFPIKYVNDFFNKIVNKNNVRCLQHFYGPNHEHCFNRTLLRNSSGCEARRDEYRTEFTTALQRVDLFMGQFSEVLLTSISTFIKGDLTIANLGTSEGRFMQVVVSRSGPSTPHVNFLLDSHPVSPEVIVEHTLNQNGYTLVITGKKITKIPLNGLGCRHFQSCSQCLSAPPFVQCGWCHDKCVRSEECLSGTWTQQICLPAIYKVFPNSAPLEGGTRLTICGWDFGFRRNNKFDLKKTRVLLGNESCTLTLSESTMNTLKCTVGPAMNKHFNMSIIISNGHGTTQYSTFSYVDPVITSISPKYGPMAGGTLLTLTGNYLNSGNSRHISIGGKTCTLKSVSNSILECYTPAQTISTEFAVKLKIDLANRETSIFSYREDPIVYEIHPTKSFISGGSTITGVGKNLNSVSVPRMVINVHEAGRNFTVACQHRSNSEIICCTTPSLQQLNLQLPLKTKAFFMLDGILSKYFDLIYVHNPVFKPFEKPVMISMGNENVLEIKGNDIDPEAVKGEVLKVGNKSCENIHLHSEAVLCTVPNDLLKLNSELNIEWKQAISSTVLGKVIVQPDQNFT
T5 sequence (A2V9Z4 25-608 limits assumed): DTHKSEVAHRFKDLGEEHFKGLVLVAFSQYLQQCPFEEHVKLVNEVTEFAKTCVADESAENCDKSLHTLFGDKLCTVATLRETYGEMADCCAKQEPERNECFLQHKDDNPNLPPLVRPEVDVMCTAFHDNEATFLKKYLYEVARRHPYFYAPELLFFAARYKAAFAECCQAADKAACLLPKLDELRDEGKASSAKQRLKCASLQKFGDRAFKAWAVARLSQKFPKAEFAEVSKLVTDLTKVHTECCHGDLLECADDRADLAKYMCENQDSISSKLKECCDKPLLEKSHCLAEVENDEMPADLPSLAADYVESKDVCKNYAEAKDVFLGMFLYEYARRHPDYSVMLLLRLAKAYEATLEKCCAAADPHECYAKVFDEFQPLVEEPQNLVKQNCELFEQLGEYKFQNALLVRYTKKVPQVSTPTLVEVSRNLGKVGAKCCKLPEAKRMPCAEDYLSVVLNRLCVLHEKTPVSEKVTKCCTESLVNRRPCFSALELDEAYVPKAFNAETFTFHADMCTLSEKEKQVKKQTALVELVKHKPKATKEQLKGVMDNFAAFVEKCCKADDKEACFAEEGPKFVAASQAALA
T1 sequence (P02769 25-607 limits assumed): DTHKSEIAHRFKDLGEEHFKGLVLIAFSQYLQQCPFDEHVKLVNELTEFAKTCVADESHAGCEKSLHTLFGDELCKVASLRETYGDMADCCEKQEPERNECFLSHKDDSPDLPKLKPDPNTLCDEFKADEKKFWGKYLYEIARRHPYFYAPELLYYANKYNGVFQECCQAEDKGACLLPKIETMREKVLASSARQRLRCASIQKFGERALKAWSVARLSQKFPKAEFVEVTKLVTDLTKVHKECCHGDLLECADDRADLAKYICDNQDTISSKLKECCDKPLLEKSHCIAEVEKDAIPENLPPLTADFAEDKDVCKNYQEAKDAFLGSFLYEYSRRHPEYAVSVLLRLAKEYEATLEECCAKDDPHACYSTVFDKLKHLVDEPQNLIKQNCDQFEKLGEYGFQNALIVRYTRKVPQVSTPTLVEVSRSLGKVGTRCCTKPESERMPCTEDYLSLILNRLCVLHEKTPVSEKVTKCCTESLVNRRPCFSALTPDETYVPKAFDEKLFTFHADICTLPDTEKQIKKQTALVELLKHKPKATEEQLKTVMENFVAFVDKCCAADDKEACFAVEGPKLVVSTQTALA

B1: SL335 (Fab, V domains shown)
VH: QVQLVQSGGGPVKPGGSLRLSCAASGFMFRAYSMNWVRQAPGKGLEWVSSISSSGRYIHYADSVKGRFTISRDNAKNSLYLQMNSLRAEDTAVYYCARETVMAGKALDYWGQGTLVTVSS
VL: ELVLTQSPGTLSLSPGETATLSCRASQSVGSNLAWYQQKPGQAPRLLIYGASTGATGVPARFSGSRSGTDFTLTITSLQPEDFATYYCQQYYSFLAKTFGQGTQLEIKR
notes: Human anti-serum albumin Fab in the classic form (VH+CH1 with Cys233, VL+CLk with Cys214); tested on phage and as soluble Fab purified from E. coli; also called SL335wt; SL335 Fab
- binding result [1]: no binding
- EC50 [2]: 0.16 µg/mL
- fold stronger binding than to rat SA at pH 7.4 [3]: 4 fold
- Kd [4]: 122 nM
- koff [4]: 0.00576 s⁻¹
- kon [4]: 47100 M⁻¹ s⁻¹
- Kd [5]: ~1600 nM
- binding result [6]: binds
- binding result [7]: no binding
- binding result [8]: no binding
- binding result [9]: no binding
- EC50 [10]: 0.04 µg/mL
- Kd [11]: 65.3 nM
- koff [11]: 0.00282 s⁻¹
- kon [11]: 43200 M⁻¹ s⁻¹
